The values below come from patent US7939292B2, “Modified heparinase III and methods of sequencing therewith” (Massachusetts Institute of Technology, priority 2000, dated 2011).

This data set can be described thus: Heparinase III kinetic assay of r-heparinase III and histidine mutants. The class given is biochemical. As to conditions: for kcat / Km: heparan sulfate; for Km: calculated assuming a molecular weight of 15 kDa; for enzymatic activity towards heparan sulfate: kinetic data and exhaustive digest profile. The method, then:
The activity of heparinase III was measured using a UV 232 nm assay similar to those reported for heparinase I and heparinase II (Godavarti, R., Cooney, C. L., Langer, R., and Sasisekharan, R. (1996) Biochemistry 35, 6846-52; Shriver, Z., Hu, Y., and Sasisekharan, R. (1998) J. Biol. Chem. 273, 10160-67; and Lohse, D. and Linhardt, R. J. (1992) J. Biol. Chem. 267, 781-87). Briefly, the increase in absorbance at 232 nm as a function of time was monitored under saturating substrate conditions. All assays were performed with heparan sulfate at a concentration of 2 mg/ml in 50 mM sodium phosphate, pH 7.6. The temperature for enzymatic activity measurements was kept constant at 35° C.
In parallel to the mapping studies and to confirm the results of the chemical modification experiments, each of the thirteen histidine residues present in heparinase III was mutated to alanine. The recombinant heparinase III mutant proteins were expressed, purified, and assessed for enzymatic activity towards heparan sulfate (Table 2).

Entries after “also recorded” stand apart in the source; their conditions may differ.

B1: H539A: recombinant heparinase III with histidine 539 mutated to alanine (protein)
chain: MTTKIFKRIIVFAVIALSSGNILAQSSSITRKDFDHINLEYSGLEKVNKAVAAGNYDDAAKALLAYYREKSKAREPDFSNAEKPADIRQPIDKVTREMADKALVHQFQPHKGYGYFDYGKDINWQMWPVKDNEVRWQLHRVKWWQAMALVYHATGDEKYAREWVYQYSDWARKNPLGLSQDNDKFVWRPLEVSDRVQSLPPTFSLFVNSPAFTPAFLMEFLNSYHQQADYLSTHYAEQGNHRLFEAQRNLFAGVSFPEFKDSPRWRQTGISVLNTEIKKQVYADGMQFELSPIYHVAAIDIFLKAYGSAKRVNLEKEFPQSYVQTVENMIMALISISLPDYNTPMFGDSWITDKNFRMAQFASWARVFPANQAIKYFATDGKQGKAPNFLSKALSNAGFYTFRSGWDKNATVMVLKASPPGEFHAQPDNGTFELFIKGRNFTPDAGVFVYSGDEAIMKLRNWYRQTRIHSTLTLDNQNMVITKARQNKWETGNNLDVLTYTNPSYPNLDHQRSVLFINKKYFLVIDRAIGEATGNLGVAWQLKEDSNPVFDKTKNRVYTTYRDGNNLMIQSLNADRTSLNEEEGKVSYVYNKELKRPAFVFEKPKKNAGTQNFVSIVYPYDGQKAPEISIRENKGNDFEKGKLNLTLTINGKQQLVLVP
Turning to B1, the “changes in recombinant protein yield, enzyme activity, or kinetic parameters compared with r-heparinase III” value (from here on “changes in recombinant protein yield”) is “no significant changes”; the kcat is 132 s⁻¹; the Km is 92 µM.

B2: H295A: recombinant heparinase III with histidine 295 mutated to alanine (protein)
chain: MTTKIFKRIIVFAVIALSSGNILAQSSSITRKDFDHINLEYSGLEKVNKAVAAGNYDDAAKALLAYYREKSKAREPDFSNAEKPADIRQPIDKVTREMADKALVHQFQPHKGYGYFDYGKDINWQMWPVKDNEVRWQLHRVKWWQAMALVYHATGDEKYAREWVYQYSDWARKNPLGLSQDNDKFVWRPLEVSDRVQSLPPTFSLFVNSPAFTPAFLMEFLNSYHQQADYLSTHYAEQGNHRLFEAQRNLFAGVSFPEFKDSPRWRQTGISVLNTEIKKQVYADGMQFELSPIYAVAAIDIFLKAYGSAKRVNLEKEFPQSYVQTVENMIMALISISLPDYNTPMFGDSWITDKNFRMAQFASWARVFPANQAIKYFATDGKQGKAPNFLSKALSNAGFYTFRSGWDKNATVMVLKASPPGEFHAQPDNGTFELFIKGRNFTPDAGVFVYSGDEAIMKLRNWYRQTRIHSTLTLDNQNMVITKARQNKWETGNNLDVLTYTNPSYPNLDHQRSVLFINKKYFLVIDRAIGEATGNLGVHWQLKEDSNPVFDKTKNRVYTTYRDGNNLMIQSLNADRTSLNEEEGKVSYVYNKELKRPAFVFEKPKKNAGTQNFVSIVYPYDGQKAPEISIRENKGNDFEKGKLNLTLTINGKQQLVLVP
Regarding B2, the “enzymatic activity towards heparan sulfate” value was “completely inactive; also recorded: no enzymatic activity”.

B3: H152A: recombinant heparinase III with histidine 152 mutated to alanine (protein)
chain: MTTKIFKRIIVFAVIALSSGNILAQSSSITRKDFDHINLEYSGLEKVNKAVAAGNYDDAAKALLAYYREKSKAREPDFSNAEKPADIRQPIDKVTREMADKALVHQFQPHKGYGYFDYGKDINWQMWPVKDNEVRWQLHRVKWWQAMALVYAATGDEKYAREWVYQYSDWARKNPLGLSQDNDKFVWRPLEVSDRVQSLPPTFSLFVNSPAFTPAFLMEFLNSYHQQADYLSTHYAEQGNHRLFEAQRNLFAGVSFPEFKDSPRWRQTGISVLNTEIKKQVYADGMQFELSPIYHVAAIDIFLKAYGSAKRVNLEKEFPQSYVQTVENMIMALISISLPDYNTPMFGDSWITDKNFRMAQFASWARVFPANQAIKYFATDGKQGKAPNFLSKALSNAGFYTFRSGWDKNATVMVLKASPPGEFHAQPDNGTFELFIKGRNFTPDAGVFVYSGDEAIMKLRNWYRQTRIHSTLTLDNQNMVITKARQNKWETGNNLDVLTYTNPSYPNLDHQRSVLFINKKYFLVIDRAIGEATGNLGVHWQLKEDSNPVFDKTKNRVYTTYRDGNNLMIQSLNADRTSLNEEEGKVSYVYNKELKRPAFVFEKPKKNAGTQNFVSIVYPYDGQKAPEISIRENKGNDFEKGKLNLTLTINGKQQLVLVP
On to B3, for which the “changes in recombinant protein yield” value is reported as “no significant changes”; the turnover number (kcat) is 83 s⁻¹; the Michaelis-Menten constant (Km) was 58 µM.

B4: H36A: recombinant heparinase III with histidine 36 mutated to alanine (protein)
chain: MTTKIFKRIIVFAVIALSSGNILAQSSSITRKDFDAINLEYSGLEKVNKAVAAGNYDDAAKALLAYYREKSKAREPDFSNAEKPADIRQPIDKVTREMADKALVHQFQPHKGYGYFDYGKDINWQMWPVKDNEVRWQLHRVKWWQAMALVYHATGDEKYAREWVYQYSDWARKNPLGLSQDNDKFVWRPLEVSDRVQSLPPTFSLFVNSPAFTPAFLMEFLNSYHQQADYLSTHYAEQGNHRLFEAQRNLFAGVSFPEFKDSPRWRQTGISVLNTEIKKQVYADGMQFELSPIYHVAAIDIFLKAYGSAKRVNLEKEFPQSYVQTVENMIMALISISLPDYNTPMFGDSWITDKNFRMAQFASWARVFPANQAIKYFATDGKQGKAPNFLSKALSNAGFYTFRSGWDKNATVMVLKASPPGEFHAQPDNGTFELFIKGRNFTPDAGVFVYSGDEAIMKLRNWYRQTRIHSTLTLDNQNMVITKARQNKWETGNNLDVLTYTNPSYPNLDHQRSVLFINKKYFLVIDRAIGEATGNLGVHWQLKEDSNPVFDKTKNRVYTTYRDGNNLMIQSLNADRTSLNEEEGKVSYVYNKELKRPAFVFEKPKKNAGTQNFVSIVYPYDGQKAPEISIRENKGNDFEKGKLNLTLTINGKQQLVLVP
In the case of B4, the “changes in recombinant protein yield” value is “no significant changes”; the kcat is 86 s⁻¹; the Km is 98 µM.

B5: H510A: recombinant heparinase III with histidine 510 mutated to alanine (protein)
chain: MTTKIFKRIIVFAVIALSSGNILAQSSSITRKDFDHINLEYSGLEKVNKAVAAGNYDDAAKALLAYYREKSKAREPDFSNAEKPADIRQPIDKVTREMADKALVHQFQPHKGYGYFDYGKDINWQMWPVKDNEVRWQLHRVKWWQAMALVYHATGDEKYAREWVYQYSDWARKNPLGLSQDNDKFVWRPLEVSDRVQSLPPTFSLFVNSPAFTPAFLMEFLNSYHQQADYLSTHYAEQGNHRLFEAQRNLFAGVSFPEFKDSPRWRQTGISVLNTEIKKQVYADGMQFELSPIYHVAAIDIFLKAYGSAKRVNLEKEFPQSYVQTVENMIMALISISLPDYNTPMFGDSWITDKNFRMAQFASWARVFPANQAIKYFATDGKQGKAPNFLSKALSNAGFYTFRSGWDKNATVMVLKASPPGEFHAQPDNGTFELFIKGRNFTPDAGVFVYSGDEAIMKLRNWYRQTRIHSTLTLDNQNMVITKARQNKWETGNNLDVLTYTNPSYPNLDAQRSVLFINKKYFLVIDRAIGEATGNLGVHWQLKEDSNPVFDKTKNRVYTTYRDGNNLMIQSLNADRTSLNEEEGKVSYVYNKELKRPAFVFEKPKKNAGTQNFVSIVYPYDGQKAPEISIRENKGNDFEKGKLNLTLTINGKQQLVLVP
Turning to B5, the “changes in recombinant protein yield” value is reported as “no significant changes” and the “enzymatic activity towards heparan sulfate” value is “completely inactive; also recorded: no enzymatic activity”.
